# T1: cynomolgus monkey DLL3 on CHO-s cells (cynomolgus monkey, UniProt Q9NYJ7 27-618 (human entry))
# T1 construct: also called cynoDLL3/CHO-s; CynoDLL3/CHO-S
# T1 chain: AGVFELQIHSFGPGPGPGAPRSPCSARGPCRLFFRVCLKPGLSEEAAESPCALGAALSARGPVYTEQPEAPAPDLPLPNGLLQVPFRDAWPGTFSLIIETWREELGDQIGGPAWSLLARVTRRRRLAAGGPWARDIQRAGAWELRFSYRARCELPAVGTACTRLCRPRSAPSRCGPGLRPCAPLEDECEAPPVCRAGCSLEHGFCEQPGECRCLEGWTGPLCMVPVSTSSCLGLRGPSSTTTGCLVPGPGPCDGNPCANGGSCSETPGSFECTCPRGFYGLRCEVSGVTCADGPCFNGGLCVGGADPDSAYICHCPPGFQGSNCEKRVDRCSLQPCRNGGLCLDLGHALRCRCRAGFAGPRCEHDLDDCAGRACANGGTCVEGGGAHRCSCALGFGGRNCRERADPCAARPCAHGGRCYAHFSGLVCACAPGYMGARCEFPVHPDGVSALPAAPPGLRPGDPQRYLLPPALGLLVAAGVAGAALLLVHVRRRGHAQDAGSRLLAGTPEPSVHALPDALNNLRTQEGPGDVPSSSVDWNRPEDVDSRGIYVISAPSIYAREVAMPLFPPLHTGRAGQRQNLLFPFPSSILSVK
# T2: DLL1 (ACRO, DL1-H52H8) (human, UniProt O00548 18-540)
# T2 construct: Bought; also called human DLL1
# T2 sequence: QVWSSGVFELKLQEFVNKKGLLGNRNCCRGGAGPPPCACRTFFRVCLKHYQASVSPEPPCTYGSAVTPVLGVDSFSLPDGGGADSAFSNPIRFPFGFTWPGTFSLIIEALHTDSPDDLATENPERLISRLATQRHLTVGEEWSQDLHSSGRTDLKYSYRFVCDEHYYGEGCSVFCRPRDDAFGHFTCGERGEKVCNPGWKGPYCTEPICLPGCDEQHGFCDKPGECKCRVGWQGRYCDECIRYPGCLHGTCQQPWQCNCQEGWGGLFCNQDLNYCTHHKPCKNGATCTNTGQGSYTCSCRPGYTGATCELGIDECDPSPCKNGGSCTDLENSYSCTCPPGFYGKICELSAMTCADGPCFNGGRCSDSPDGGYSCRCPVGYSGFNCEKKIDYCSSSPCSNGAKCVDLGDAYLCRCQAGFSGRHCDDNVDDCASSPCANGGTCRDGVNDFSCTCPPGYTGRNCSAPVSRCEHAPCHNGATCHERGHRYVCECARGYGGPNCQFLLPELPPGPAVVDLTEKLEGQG
# What was measured:
# [1] = biological target: T1, cynomolgus monkey DLL3 on CHO-s cells; test: flow cytometry, cynoDLL3/CHO-s cells
# Method: The plates were centrifuged at 300 g for 5 min, and the supernatant was removed. Different concentrations of test antibodies were added at 100 μL/well. The plates were incubated in the dark in a refrigerator at 4° C. for 1 h. After 3 centrifugal washes at 300 g, working concentrations of APC anti-human IgG Fc (BioLegend, 410712) or PE F(ab′)2-goat anti-human IgG (invitrogen, H10104) were added. The plates were incubated in the dark in a refrigerator at 4° C. for 40 min. After 3 centrifugal washes at 300 g, the geometric mean fluorescence intensity was measured on an Invitrogen flow cytometer, and the EC50 values for the binding of the antibodies to DLL3-expressing cells were calculated.
# [2] = biological target: T3, CD3 on Jurkat cells (human); test: flow cytometry, Jurkat cells
# T3 construct: whole, on cells; also called CD3-expressing Jurkat cells
# T3 sequence (P07766 23-207, chain 1 of 4): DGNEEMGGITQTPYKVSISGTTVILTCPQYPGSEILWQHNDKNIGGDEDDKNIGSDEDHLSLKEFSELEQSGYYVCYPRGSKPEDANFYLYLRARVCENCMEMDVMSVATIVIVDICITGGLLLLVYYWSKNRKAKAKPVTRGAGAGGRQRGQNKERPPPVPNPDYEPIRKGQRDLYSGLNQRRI
# T3 sequence (P09693 23-182, chain 2 of 4, further chain): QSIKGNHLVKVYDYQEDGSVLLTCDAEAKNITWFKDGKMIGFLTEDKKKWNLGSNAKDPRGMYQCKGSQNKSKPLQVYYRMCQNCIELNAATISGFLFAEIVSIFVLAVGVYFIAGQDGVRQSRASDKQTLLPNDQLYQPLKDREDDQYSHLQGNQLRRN
# T3 sequence (P04234 22-171, chain 3 of 4, further chain): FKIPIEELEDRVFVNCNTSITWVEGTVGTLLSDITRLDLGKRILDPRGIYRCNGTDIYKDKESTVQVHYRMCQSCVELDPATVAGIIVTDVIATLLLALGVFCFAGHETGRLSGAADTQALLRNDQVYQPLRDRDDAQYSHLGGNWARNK
# T3 sequence (P20963 22-164, chain 4 of 4, further chain): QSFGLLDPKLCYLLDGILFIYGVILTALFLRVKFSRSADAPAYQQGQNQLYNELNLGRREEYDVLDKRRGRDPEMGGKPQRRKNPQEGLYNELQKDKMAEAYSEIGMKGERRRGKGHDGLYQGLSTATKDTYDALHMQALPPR
# [3] = biological target: T2, DLL1 (ACRO, DL1-H52H8); test: ELISA, DLL1 coated at 1 µg/mL, detection with anti-human IgG (H+L)-HRP, OD450
# Method: DLL1 (ACRO, DL1-H52H8, 1 μg/mL) and DLL4 (ACRO, DL4-H5227, 1 μg/mL) were plated at 100 μL/well, and the plates were incubated overnight at 4° C. The plates were washed 3 times with 250 μL of PBST solution (PBS containing 0.1% Tween 20) per well. The plates were blocked with 250 μL of 5% milk per well at 37° C. for 2 h. The plates were washed 3 times with 250 μL of PBST solution per well. Test antibodies (maximum concentration 100 nM, serially diluted 4-fold) were added, and the plates were incubated at 37° C. for 1 h. The plates were washed 6 times with 250 μL of PBST solution per well. […] The plates were washed 6 times with 250 μL of PBST solution per well. TMB (KPL, 5120-0077) substrate solution was added at 100 μL/well, and color development was performed at room temperature for 5-10 min. 1 M H₂SO₄ was added at 100 μL/well to stop the color development, and microplate reader (Molecular Devices, VERSA max) readings at 450 nm were taken.
# [4] = biological target: T4, hDLL3 (ECD)-strep twin, biotinylated (human, UniProt Q9NYJ7 27-492, biotinylated); test: ELISA, biotinylated antigen on streptavidin, OD450
# T4 construct: The entry carries a signal peptide (marked only by a dotted line); also called Biotinylated DLL3 antigen; human DLL3 protein
# Method: Streptavidin (abcam, ab136200, 1 μg/mL) was plated at 100 μL/well, and the plates were incubated overnight at 4° C. The plates were washed 3 times with 250 μL of PBST solution (PBS containing 0.1% Tween 20) per well. The plates were blocked with 250 μL of 5% milk per well at 37° C. for 2 h. The plates were washed 3 times with 250 μL of PBST solution per well. Biotinylated DLL3 antigen (1 μg/mL) (SEQ ID NO: 9) was added, and the plates were incubated at 37° C. for 1 h. The plates were washed 3 times with 250 μL of PBST solution per well. Antibodies (maximum concentration 400 nM, serially diluted 4-fold) were formulated, and incubation was performed at 37° C. for 1 h. The plates were washed 6 times with 250 μL of PBST solution per well. […] The plates were washed 6 times with 250 μL of PBST solution per well. TMB (KPL, 5120-0077) substrate solution was added at 100 μL/well, and color development was performed at room temperature for 5-10 min. 1 M H₂SO₄ was added at 100 μL/well to stop the color development, and microplate reader (Molecular Devices, VERSA max) readings at 450 nm were taken.
EC50 [1],EC50 [2],binding result [3],Emax [4],Binder
5.01 nM,7.74 nM,no binding,0.45,"hu110-S107E-hot Ig (bispecific antibody, Format 1 (Hot-Ig, Titin/Obscurin-replaced DLL3 Fab), DLL3 x CD3) light 1: NIVMTQSPKSLAVSLGERATINCKASENVGIFVSWYQQKPGQSPKLLIYGASNRYTGVPDRFSGSGSATDFTLTISSLQAEDVADYYCGQSHSYPLTFGQGTKLEIKGGGGSSGAPRFLTRPKASVVSVGKDATLSCQIVGNPFPQVSWEKDKQPVTAGVRFRLAQDGDLYRLKILDLQLSDSGQYVCRARNAHGEAFACLGLQVDAEA heavy 1: EVQLVQSGAEVKKPGASVKVSCKTSGYTFTDYYMNWVRQAPGQSLEWMGIINPYQGGTSYTQKFKGRVTITVDKSASTAYMELSSLRSEDTAVYYCARHFYDSSYLTYSTMDYWGQGTTVTVSSGGGGSGIPPKIECLPIDISIDEGKVLTVASAFTGEPTPEVTWSTGGRKIHSQEQGRFHIENTDDSTTLTIKDVQKQDGGLYTLTLRNEFGSDSATVNIHIRSIDKTHTCPPCPAPEAAGGPSVFLFPPKPKDTLMISRTPEVTCVVVDVSHEDPEVKFNWYVDGVEVHNAKTKPREEQYNSTYRVVSVLTVLHQDWLNGKEYKCKVSNKALPAPIEKTISKAKGQPREPQVCTLPPSREEMTKNQVSLSCAVKGFYPSDIAVEWESNGQPENNYKTTPPVLDSDGSFFLVSKLTVDKSRWQQGNVFSCSVMHEALHNHYTQKSLSLSPGK heavy 2: not shown light 2: not shown"
4.92 nM,3.27 nM,no binding,0.48,"hu110-I2C-hot Ig (bispecific antibody, Format 1 (Hot-Ig, Titin/Obscurin-replaced DLL3 Fab), DLL3 x CD3) light 1: NIVMTQSPKSLAVSLGERATINCKASENVGIFVSWYQQKPGQSPKLLIYGASNRYTGVPDRFSGSGSATDFTLTISSLQAEDVADYYCGQSHSYPLTFGQGTKLEIKGGGGSSGAPRFLTRPKASVVSVGKDATLSCQIVGNPFPQVSWEKDKQPVTAGVRFRLAQDGDLYRLKILDLQLSDSGQYVCRARNAHGEAFACLGLQVDAEA heavy 1: EVQLVQSGAEVKKPGASVKVSCKTSGYTFTDYYMNWVRQAPGQSLEWMGIINPYQGGTSYTQKFKGRVTITVDKSASTAYMELSSLRSEDTAVYYCARHFYDSSYLTYSTMDYWGQGTTVTVSSGGGGSGIPPKIECLPIDISIDEGKVLTVASAFTGEPTPEVTWSTGGRKIHSQEQGRFHIENTDDSTTLTIKDVQKQDGGLYTLTLRNEFGSDSATVNIHIRSIDKTHTCPPCPAPEAAGGPSVFLFPPKPKDTLMISRTPEVTCVVVDVSHEDPEVKFNWYVDGVEVHNAKTKPREEQYNSTYRVVSVLTVLHQDWLNGKEYKCKVSNKALPAPIEKTISKAKGQPREPQVCTLPPSREEMTKNQVSLSCAVKGFYPSDIAVEWESNGQPENNYKTTPPVLDSDGSFFLVSKLTVDKSRWQQGNVFSCSVMHEALHNHYTQKSLSLSPGK heavy 2: not shown light 2: not shown"
4.92 nM,3.83 nM,no binding,0.48,"hu110-I2C-Y body (bispecific antibody, Format 2 (Y body: DLL3 Fab-Fc hole + CD3 scFv-Fc knob)) light: NIVMTQSPKSLAVSLGERATINCKASENVGIFVSWYQQKPGQSPKLLIYGASNRYTGVPDRFSGSGSATDFTLTISSLQAEDVADYYCGQSHSYPLTFGQGTKLEIKRTVAAPSVFIFPPSDEQLKSGTASVVCLLNNFYPREAKVQWKVDNALQSGNSQESVTEQDSKDSTYSLSSTLTLSKADYEKHKVYACEVTHQGLSSPVTKSFNRGEC heavy: EVQLVQSGAEVKKPGASVKVSCKTSGYTFTDYYMNWVRQAPGQSLEWMGIINPYQGGTSYTQKFKGRVTITVDKSASTAYMELSSLRSEDTAVYYCARHFYDSSYLTYSTMDYWGQGTTVTVSSASTKGPSVFPLAPSSKSTSGGTAALGCLVKDYFPEPVTVSWNSGALTSGVHTFPAVLQSSGLYSLSSVVTVPSSSLGTQTYICNVNHKPSNTKVDKKVEPKSCDKTHTCPPCPAPEAAGGPSVFLFPPKPKDTLMISRTPEVTCVVVDVSHEDPEVKFNWYVDGVEVHNAKTKPREEQYNSTYRVVSVLTVLHQDWLNGKEYKCKVSNKALPAPIEKTISKAKGQPREPQVCTLPPSREEMTKNQVSLSCAVKGFYPSDIAVEWESNGQPENNYKTTPPVLDSDGSFFLVSKLTVDKSRWQQGNVFSCSVMHEALHNHYTQKSLSLSPGK not shown"
